One variant from paper PMC10741561 can be followed below.

Sequences and labels used below:
B1: WT-Sx4-GST (C-terminally GST-tagged Syntaxin 4 cytosolic domain) [not stated] / His-SNAP23 (N-terminally His-tagged SNAP23) [not stated] (parent)
chain 1: MRDRTHELRQGDNISDDEDEVRVALVVHSGAARLGSPDDEFFQKVQTIRQTMAKLESKVRELEKQQVTILATPLPEESMKQGLQNLREEIKQLGREVRAQLKAIEPQKEEADENYNSVNTRMKKTQHGVLSQQFVELINKCNSMQSEYREKNVERIRRQLKITNAGMVSDEELEQMLDSGQSEVFVSNILKDTQVTRQALNEISARHSEIQQLERSIRELHEIFTFLATEVEMQGEMINRIEKNILSSADYVERGQEHVKIALENQKKARKKKV
chain 2: MDNLSPEEVQLRAHQVTDESLESTRRILGLAIESQDAGIKTITMLDEQGEQLNRIEEGMDQINKDMREAEKTLTELNKCCGLCICPCNRTKNFESGKNYKATWGDGGDNSPSNVVSKQPSRITNGQPQQTTGAASGGYIKRITNDAREDEMEENLTQVGSILGNLKNMALDMGNEIDAQNQQIQKITEKADTNKNRIDIANTRAKKLIDS

The first experiment covers variants of B1. Kind of experiment: GST pull-down (glutathione sepharose), immunoblot, ImageJ quantification. The settings on record: with His-SNAP23 (N-terminally His-tagged SNAP23); 30 min; 1–5 μg Sx4-GST variant on beads, excess His-SNAP23, 4 °C; read off a plot.
In the case of chain 1 MRDRTHELRQGDNISDDEDEVRVALVVHSGAARLGSPDDEFFQKVQTIRQTMAKLESKVRELEKQQVTILATPLPEESMKQGLQNLREEIKQLGREVRAQLKAIEPQKEEADENYNSVNTRMKKTQHGVLSQQFVELINKCNSMQSEYREKNVERIRRQLKITNAGMVSDEEAAQMLDSGQSEVFVSNILKDTQVTRQALNEISARHSEIQQLERSIRELHEIFTFLATEVEMQGEMINRIEKNILSSADYVERGQEHVKIALENQKKARKKKV [chain 1 L173A E174A], the response (relative amount bound) is 0.77.

The same experiment, now with this note: with His-SNAP23 (N-terminally His-tagged SNAP23); 60 min; 1–5 μg Sx4-GST variant on beads, excess His-SNAP23, 4 °C; read off a plot.
For the variant chain 1 MRDRTHELRQGDNISDDEDEVRVALVVHSGAARLGSPDDEFFQKVQTIRQTMAKLESKVRELEKQQVTILATPLPEESMKQGLQNLREEIKQLGREVRAQLKAIEPQKEEADENYNSVNTRMKKTQHGVLSQQFVELINKCNSMQSEYREKNVERIRRQLKITNAGMVSDEEAAQMLDSGQSEVFVSNILKDTQVTRQALNEISARHSEIQQLERSIRELHEIFTFLATEVEMQGEMINRIEKNILSSADYVERGQEHVKIALENQKKARKKKV [chain 1 L173A E174A], the response (relative amount bound) was found to be 1.7.
